Occupancy of RNCs and percent ribosome-bound data for 3 substances are collected here from paper PMC2928861.

Some results are limits rather than exact numbers.

Test [1] concerns the target ribosome-nascent chain complex (RNC) of Sec61β, TMD inside the ribosomal tunnel (UniProt P60468). Briefly: co-IP.
For test [2], the target named is ribosomes purified under native conditions from reticulocyte lysate. Briefly: co-sedimentation.

Sequence of UniProt P60468 (P60468 whole entry, looked up, one chain of several): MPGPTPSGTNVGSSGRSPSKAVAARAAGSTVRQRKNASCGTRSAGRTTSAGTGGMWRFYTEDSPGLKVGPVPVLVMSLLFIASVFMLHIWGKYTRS

Substance “Bat3 complex (Bat3, TRC35 and Ubl4A) (from UniProt P46379;Q7L5D6;P11441)” gave an occupancy of RNCs in test [1] of 27%. Regarding “SRP (signal recognition particle), followed by its subunit SRP54 (from UniProt P61011 1-504) (complex)”, in test [1], the occupancy of RNCs was 7%. This substance had a percent ribosome-bound in test [2] of 30 to 50%. Substance “TRC40 (from UniProt O43681 1-348) (natural protein)” displayed a percent ribosome-bound in test [2] of less than 1%.
